Test results: the supplement of paper PMC12042874
± gives the uncertainty stated by the source.

Assay: amyloid nucleation score (Sup35N fusion, yeast selection) (log enrichment); library NNK3; higher = more nucleation; inactive = no reads after selection
How it was run: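 Psi-negative yeast expressed Sup35N fused to peptides of 20 random codons. They were induced 24 hours with 100 μM copper sulfate, grown 7 days at 30°C without adenine and uracil, and their plasmid inserts from input and output were Illumina-sequenced. The nucleation score is the DiMSum log enrichment of output over input reads, centred on the mode score of non-aggregating sequences. Sequences with under 100 input reads were excluded.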

Substance	amyloid nucleation score
IPVQFFVQIRSGIVHFWHER	1.81 ± 0.11
IPWCSPDGLVRRYHHKR	inactive
IQFPDQ	inactive
IQHFFQINNWLLDI	1.98 ± 0.07
IQLMLFIDCLSENCYVWLRY	inactive
IQMGGWIIMYSAGCGA	inactive
IQNANVRHYKRHRKFLTFIS	1.27 ± 0.11
IQSYK	inactive
IRAYTDNDSNLSEFGVFTLV	inactive
IRCRQNPGSHVIRYFCCRRS	inactive
IRDASWTKNLEFECLLFKPS	inactive
IRFSKTLRVIVHGEGNGKLC	inactive
IRGIVV	inactive
IRHVHLSRYSTRTDGNNQLD	inactive
IRLLATF	inactive
IRLVMETLGNLGIADKSMRV	inactive
IRNERRQGSCGIIISRNCYV	inactive
IRPSHYIYLRTN	inactive
IRQVLCCESLRLGSYMQINT	inactive
IRRHYAYCYNISTITVIAEI	inactive
IRSAVVV	-0.53 ± 1.8
IRSIM	inactive
IRSSREFYMSVYRTEAWVLE	inactive
IRSVKISSGYLLISYGDNNW	0.687 ± 0.18
IRTIIQKKMWACDHVFGSPA	inactive
IRYVFPFDIAHYFYLTKRYG	inactive
ISCSKLTR	inactive

Substance	amyloid nucleation score
ISCYLSDPVYS	-0.493 ± 1
ISFCYALCCNKMKRLLARCK	inactive
ISFSSES	inactive
ISHFTARFVSPPMQWLRTCF	inactive
ISIFWSIEGSNYLHLILHQG	inactive
ISLFFRICY	0.397 ± 0.27
ISLGVMCYYVPIPGCECTNI	inactive
ISMNLVLFMWFRRIGFLICL	inactive
ISNLRYRSWAYLVRSFCSVL	inactive
ISRFCYSSINRRGFLGNFVF	inactive
ISSVQISRAFPQHRTRRN	inactive
ISTDSVIHTTMEHSGE	inactive
ISTSLMDRRTKMLRQM	inactive
ISVAWWGCSTAYRRCKD	1.14 ± 0.12
ISVLERLGYMFVSRHMLLVW	inactive
ISVLVKWLVAERTSYWIMIP	inactive
ISVVFSGKNSLKEMRMKMAG	0.469 ± 0.21
ISVYHVLTHKL	1.49 ± 0.12
ISYVKFY	inactive
ITCANALLCDGSRFSM	0.741 ± 0.16
ITFNRSSSKNCSQKVKGRTL	inactive
ITIMSDQETSHVWLVDRTLP	0.298 ± 0.17
ITPTFYVARTKPMLTGGCPK	inactive
ITRDDTCSVYRLVK	inactive
ITRGTYRSPFSFNTRFESGS	inactive
ITSFFESHTVQVYAFYIRVF	inactive
ITVIGQLIALKQFSTLTRSI	inactive

Substance	amyloid nucleation score
ITVVQANMSVWSTARVDMLD	1.12 ± 0.16
ITWWLVIVAARSEGSCSPFQ	0.158 ± 0.27
ITYKGLIWMSQGHVACRSRM	-0.008 ± 0.7
IVCCQYQNYLNGSPLNIVLI	inactive
IVCHHRDYFLAYYYEMLHCR	inactive
IVCISLCLAAEKQPSGCEFG	2.01 ± 0.068
IVEDVGYLHLYRIQFGGVSE	inactive
IVHCWLMSGASVWTLQETPN	-0.105 ± 1.4
IVNFACCVWSLYSSREFNML	3.22 ± 0.07
IVPAWLFGV	inactive
IVQAFVSVLSY	inactive
IVRHVVYVSCGIQYCDHFWH	inactive
IVSTSYNWDDACYDRTLQGG	inactive
IVSVQVVLLYQM	1.12 ± 0.14
IVVEQLHDWDIPMKGTTFRS	inactive
IVVLWV	-0.341 ± 0.39
IVVQSNHAYTLVRTDSLVWM	1.17 ± 0.11
IVVRPR	1.24 ± 0.17
IVYFPLILGAIIYWMSETHL	inactive
IWRDLGRLIQLFWNEIYHVN	inactive
IWRLLGSWVSVTMDIYHWSS	inactive
IWSNTYPSIRSLWMSFGVVI	inactive
IWVLSCRLISRTRFICDRRM	0.057 ± 0.93
IWWNIYCFTVTSSVD	2.21 ± 0.095
IYGLLVDRRAVIFFEYMHLV	inactive
IYGTANSKFSCIIYR	2.09 ± 0.091
